These results are taken from article PMC11303396 (Nature Communications, 2024).

The data set concerns the molecule itself. The data set is described as follows: cryo-EM structure.

B1: mouse ClC-3b I607T mutant (natural protein, UniProt P51791 1-818, looked up)
chain: MESEQLFHRGYYRNSYNSITSASSDEELLDGAGAIMDFQTSEDDNLLDGDTAAGTHYTMTNGGSINSSTHLLDLLDEPIPGVGTYDDFHTIDWVREKCKDRERHRRINSKKKESAWEMTKSLYDAWSGWLVVTLTGLASGALAGLIDIAADWMTDLKEGICLSALWYNHEQCCWGSNETTFEERDKCPQWKTWAELIIGQAEGPGSYIMNYIMYIFWALSFAFLAVSLVKVFAPYACGSGIPEIKTILSGFIIRGYLGKWTLMIKTITLVLAVASGLSLGKEGPLVHVACCCGNIFSYLFPKYSTNEAKKREVLSAASAAGVSVAFGAPIGGVLFSLEEVSYYFPLKTLWRSFFAALVAAFVLRSINPFGNSRLVLFYVEYHTPWYLFELFPFILLGVFGGLWGAFFIRANIAWCRRRKSTKFGKYPVLEVIIVAAITAVIAFPNPYTRLNTSELIKELFTDCGPLESSSLCDYRNDMNASKIVDDIPDRPAGVGVYSAIWQLCLALIFKIIMTVFTFGIKVPSGLFIPSMAIGAIAGRIVGIAVEQLAYYHHDWFIFKEWCEVGADCITPGLYAMVGAAACLGGVTRMTVSLVVIVFELTGGLEYTVPLMAAVMTSKWVGDAFGREGIYEAHIRLNGYPFLDAKEEFTHTTLAADVMRPRRSDPPLAVLTQDNMTVDDIENMINETSYNGFPVIMSKESQRLVGFALRRDLTIAIESARKKQEGIVGSSRVCFAQHTPSLPAESPRPLKLRSILDMSPFTVTDHTPMEIVVDIFRKLGLRQCLVTHNGIVLGIITKKDILRHMAQTANQDPASIMFN
With B1, the binding result was “binds”.
